Assay results from the DeepSol protein solubility set.

Test: soluble on expression in E. coli; label from the status in PepcDB or PDB records
In the case of “MSLKALGLSKSTYYHWKHYQTSRHDKQDTILKSQIFEIWKNNYKAYGYPRITIAMRRLGVVIGPNRVYRLMQELGIRSLMGRRFKKPGTHVDYSQRPNLIKNHPIGTIWRADITYLELRPGTWVYLSTIFDQASKQIIAFNIGKEMASKLIIKTLLQALSRASKPTFLHSDMGSQYTSIAYEGLLKRHLIRHSYSKQGYPYDNGPLEAFHSLLKREFIFQTRFTSFEDLVLRVENYINWYNTERIRINEGHHHHHH”, the “soluble on expression in E. coli” value is reported as “not soluble”.
For “GMKSQWECFLQNLGVWEGSFSNFSPEGTLLNDTSSRLCLEGLNNNQTVRLTLSRSGKDDVIREFRSVGGGLLFFENGSFSEGLIQLGPFSEFGGELAFVHENRRLRLVQLFDRNGHLNGLTLIREHLAGTPVAERPLLQINDLLGEWRGQAVTIYRDLRPPDIYSTTLKIQLDDAGRLMQSTSFGERTITSTATIKGSIVLFDQDPEKQVQVLLLPDGASATSPLKVQLRQPLFLEAGWLIQSDLRQRMIRSYNDKGEWVSLTLVTEERV”, the “soluble on expression in E. coli” value was “soluble”.
With “DPDTRIPVINLEDGTRLVGEDAPKNKDLVEWLKLHPTYTVDMPSYVPKNADVLFSSFQKPKQKRHRCRNPNKLDINTLTGEERVPVVNKRNGKKMGGAMAPPMKDLPRWLEENPEFAVAPDWTD” the “soluble on expression in E. coli” value was “soluble”.
In the case of “MRRYLMDYSQYNLEKTGYLKEDFRLFHINDQTKKDFSYHYHDFHKIIVFISGKVTYHIEGKAYHLKPRDILLVSQGAIHKPEIDPSVPYERYIFWIRDDLSCQELNTCFQKANDRSFNLVRADSALQERLKDLLPEIEQTLQNKHFGDTVLRNALFTQFMIYINRIFLRTSSSPDKKTYSSDTQ”, the “soluble on expression in E. coli” value is reported as “not soluble”.
In the case of “MGSDKIHHHHHHADMDGSQNKETENKEIKIILEAETSSQNIFAPIVFYQSFDFGKDAPCLSEVYDSIVWKSSHSPNSFKVFSHSNYARYVETTFFKWAHVYYSPGTYKTYLLGYKNNEIIYSSDTISIDITNKKDFLAFNWKDVTDSDFTTGYANNLDGYYLSTQTHIHQGVPSVMLYAKNEKYEKGGSMKSKQILYNYINSFFSLPNYTATSDESLRKEFSTIFSFQEENAIPLNIWLTPKAKIVLLRKDFKGLESEYKIYAEPGDLI”, the “soluble on expression in E. coli” value is reported as “not soluble”.
In the case of “MDGKRVWLSDDELTRFIEQAETPHQRLAFLLAGRVGLRRSEIIEVCPQDLVDGPTGDHIRVWESYAKRDKYREPPVPQEVVTIAETLAYQQDDDEPLLDVAGSTVYRWVRRAADELEEETGDRGWQYLDVHDLRRTWGTYLLEQGVIPSVVMSFGGWEDWDTFRKHYLGLEHHHHHH”, the “soluble on expression in E. coli” value is reported as “not soluble”.
In the case of “MGSDKIHHHHHHMMDMLIAHISDTHITNEVAFKSYAYDLIVNEINTKPFDLVVHTGDVTNNGLREEYEHASYLIKKIEKPLVVVPGNHDARNVGYELFEKYIGPLYGVYEFDNGVIIWLDSTIPDLSDGRVGGYKFKWLKEKLEAYSHKKIKIVAAHHHLVPLPDTGRERNVLFNAGDVLDLLLTHEVTLYMCGHKHVPNVYRVEDLVVDNAGCASCRKTRKGDVNSYNIVKITDKGVKVVIRRLTGDEESKEHNPIRPKIFIPRGRRLLRIVQISESNVSDRVYFRKRTLENAIKAINEKYKPDIVIHCGDVVEKGIERYYEKAMEYYEKVKGEKIIVPGHNDISYLGYELFREYFGEPEVLELGDFVFIPILSAQYETQIGVVGRTGQKMLSRMLEEFREKFRIVIMHHNLVPVPGVKEIGYLEDAGNVLKIITENETELTLTGHGGNTSAVKVEKSPIINAGSISWELHRNPFGNSFNIIDIYEDMVVAFEIQATWGSRKVLGMWKIKSEIPWL”, the “soluble on expression in E. coli” value is reported as “not soluble”.
For “MGSDKIHHHHHHMRVGVIGVGCSRFGRRDDAVIQELAYEAVKEALDDAGITQDEVELSVVGSVNTRGYELMPAVPVNEYCGFAGKGPLRVEAACATGAAAVYTAYTSIASGMADVAIAIGVEKMTEVDTATSLAIGGRAGNYLWEFHQYGTTFPAYYAMHATAHMAKYGTTEEQMAKVAVKAHRNAARNPKAHFQKEIAVEDVLNSRYITYPLKLYDCSPISDGSAAAILASEEKIRELGIDDVVWIDSVGYASDTSNMTNRESFVGLKATVLAREMAYRKAGIEEPVKQLDFATVHDCFTIAEIMAYEDLGFCRKGEGGKLVESGETELGGKLPVNTFGGLKAKGHPLAATGVAMVYEIVKQLRGEAGELQVELRNNRALLHNVGGTGHFAFVMIFGR”, the “soluble on expression in E. coli” value was “not soluble”.
For “MAHHHHHHMAKKHLKRLYAPKDWMLSKLTGVFAPRPRAGPHKLRECLSLLIIIRNRLKYALNALEAQMILRQGLVCVDGKPRKDGKYPAGFMDVVEIPKTGDRFRILYDVKGRFALVRVSEAESSIKMMKVVNVYTGTGRIPVAVTHDGHRIRYPDPRTSRGDTLVYDVKEKKVLDLIKIGNGKVVMVTGGANRGRIGEIVSIERHPGAFDIARLKDASGHEFATRATNIFVIGKDMSSVPVTLPKQQGLRINVIQEREEKLIAAETRRTTQAHSKRKTKV”, the “soluble on expression in E. coli” value was “not soluble”.
With “MPRLYLGKIPYNARERDVERFLKGYGKINNISMKYGFAFVDFEDSRDAEDACHDLDGKTMEGSSMRLVVEMARGKPRGNDRHGSRSPRRRSRSPRRRSRTPPRRRSRSRDRKRSRRSRSRSSSRSRSPVRESRRRSESRSPSPKRDLKREASRSRSPLPAKDRSRTRSGSPPKNGGDRKRSVSRGRSHSRDGSNRSVSRSPSPGSPKD” the “soluble on expression in E. coli” value was “not soluble”.
For “MSLNKVITKKQTIPAFFKGNAPYIFAHRGGMALRPEQTQLAFDYAKQLGVDGFETDVRLTKDQQLIVFHDATVDRTTNGSGKVSAHTLAELKKLDAAYHFKDINGLTPYRGHAHTTILTFDELLKQYPDMYINVDLKDAPESYEGSIAPQIMFDTIAENQAFDRVLVTSFYKEQIVRFNKIAQGSVAIGASQQEVTEAFLKYHLLGGRYYQPLAQTFQMPTHFKGIDLTSSRFIKWLNDMNIIPGYYGVNSIDLMNDLYQKGAHTIVTDRPDLAQQFKQTIPNKEGHHHHHH”, the “soluble on expression in E. coli” value was “soluble”.
In the case of “MGSDKIHHHHHHMRYNRTETLLQLALELSASHSGLSLTDIEQMFGVGRRTAQRMRDAIERVFPQLEEVPQPDRTKRWRLPNRVLGRVSDLNIDDIMAMETAAEILERDNRPDAAASVRRAGAKVRASLRPDDARRIEPDLEALMQAEGIAMRPGPRPKVRPELVETLRHAIMGCREIRVQYRRRYSTNEHSRVVQPYGLLYGQRHYLLAFVPEENEVRSYSFPNIIGVEETGNSFVRDPAFSLTEYAARSFGLYQEEPYEVMWRFSPDAATDAKEFLFHPSQTHESQPDGSLIVRFKAGGLLEMAWHLYQWGDAVEVLEPEKLRAIHERSKVSWVARP”, the “soluble on expression in E. coli” value is reported as “not soluble”.
For “MNVIRTEIEDVLILEPRVFGDDRGFFYESFNQSAFEHILGYPVSFVQDNHSRSSKNVLRGLHFQRGEYAQDKLVRCTHGAVFDVAVDIRPNSVSFGKWVGVLLSADNKQQLWIPKGFAHGFLVLSDIAEFQYKTTNYYHPESDCGICWNDERIAIDWPQTSGLILSPKDERLFTLDELIRLKLIA”, the “soluble on expression in E. coli” value was “not soluble”.
For “QVGLVRSKNVMIISPKYVAIQERLLRELDKGVTLVPIEGGYRNAKGMLLMTVIREKDFPRLKEAILEIDEEAFLISMSASEVYGKGFSLKKVADSYGVEATNANNLQ”, the “soluble on expression in E. coli” value was “not soluble”.
With “MGSDKIHHHHHHVGALLSKITATDLASTLTGDPEALHVHLTLVARDVSIKGHTVKIHCHCLTVDGNGRVQPHRLAEFMRNAVVDYAIPRSKVADAKARDLKYNSTEATTELVERAKRSFTDLANTGEGGEMLLFLLAERFLKLPQILCKMDLKTDTRMHYHGADGVYAGVTPSGTLKLYWGESKIYKKVGDAIRDCLASLAPFLIEPEHEDAERERDLILLSDKADLTNSELTGALKRYFDRSSEMSTRVQYCGVALVGFDAPFYPASDVKVLADQIVDGSRRALSDWSDKIGARLAAEKLSDMEIQLFCIPLPSADGFRAAFLKAMGIKGG” the “soluble on expression in E. coli” value was “not soluble”.
With “MGSDKIHHHHHHMSAPPLCVTVCGGGRTGHLNAILFAQRPGVRVKLLTRNHHIAARQDAVLTGLLPDGATLTASAGMVTDDPAVALRDADIVIITVPAHARPSLLREIVAHLPEGKAVYVGAIPGFCGFDWLAGALLAQRPNAVIWGMKDVPHTAFALDPGVSVRMGGVKQRLYVGCHAREQRAARQALLSHLNRLYDASVELLDSYLEITLTPGNPIMHSAVIYGLIGPYGQWHGRALPTPLCWWTDCPELSAYFLERADEESQRLCQAVARRLGVDLSSVKPLRQEIVDAYGDQIQDPSTMLSVLRTNRAYADIEAPLVPTSGGYLVDTSSRAFHEDVAYGLATLVEMARRLGVDTPHLREIFEWNVTYMGGLRGSALDYFPEFWPR” the “soluble on expression in E. coli” value was “not soluble”.
For “MGSDKIHHHHHHMRRFLILFVLLVAGCTGVDPNNPQYRAFVAVAEDVEPVGEAQCRSKDPERNCDFQIQLDLNPSAPANAFQTVDRSGRPVVIFTRSMLDSFRNPDEMAFVMGHEMAHHILEHLDQQRINAVKGAVFLGELVSLEGGTPEQVANAQYVGAVVGSRSYSKAFELEADALGTLITYQAGYRPSVGVKFFEEIPDPGDVFLGTHPANPDRIRIVQRTIRKYGLN”, the “soluble on expression in E. coli” value was “not soluble”.
In the case of “MTEHTGLWLYAVADQLPDGRLPCPAGIDEAPVEAIAHDGLAAVVSPVDLHHYGEEALARRLEDFDWLAATANRHHAVIEAVHHLSTTVPMRLATVYTEPRRVSTLLAEQHDLLRRALDSVAGHTEWGVKAFAVNRPQAPPAAGGEESGAAYLRRRRAELANADAVRQEVWDAAQHAFHELGLLAVAQRRHRPQDAKLTGKPEPMLLNGSFLVEDTEQDAFTKAVSTLTADHPELEIQLSGPWPPYSFAGLAVEA”, the “soluble on expression in E. coli” value is reported as “not soluble”.
For “MSLTPDLLNFKKGWMSILDEPGEPPSPSLTTTSTSQWKKHWFVLTDSSLKYYRDSTAEEADELDGEIDLRSCTDVTEYAVQRNYGFQIHTKDAVYTLSAMTSGIRRNWIEALRKTVRPTSAPDVTEGHHHHHH”, the “soluble on expression in E. coli” value was “soluble”.
In the case of “MSRGPSSAVLPSALGSRKLGPRSLSCLSDLDGGVALEPRACRPPGSPGRAPPPTPAPSGCDPRLRPIILRRARSLPSSPERRQKAAGAPGAACRPGCSQKLRVRFADALGLELAQVKVFNAGDDPSVPLHVLSRLAINSDLCCSSQDLEFTLHCLVPDFPPPVEAADFGERLQRQLVCLERVTCSDLGISGTVRVCNVAFEKQVAVRYTFSGWRSTHEAVARWRGPAGPEGTEDVFTFGFPVPPFLLELGSRVHFAVRYQVAGAEYWDNNDHRDYSITCRNHALHMPRGECEESWIHFI”, the “soluble on expression in E. coli” value is reported as “soluble”.
With “MTEPTVARPDIDPVLKMLLDTFPVTFTAADGVEVARARLRQLKTPPELLPELRIEERTVGYDGLTDIPVRVYWPPVVRDNLPVVVYYHGGGWSLGGLDTHDPVARAHAVGAQAIVVSVDYRLAPEHPYPAGIDDSWAALRWVGENAAELGGDPSRIAVAGDSAGGNISAVMAQLARDVGGPPLVFQLLWYPTTMADLSLPSFTENADAPILDRDVIDAFLAWYVPGLDISDHTMLPTTLAPGNADLSGLPPAFIGTAEHDPLRDDGACYAELLTAAGVSVELSNEPTMVHGYVNFALVVPAAAEATGRGLAALKRALHA” the “soluble on expression in E. coli” value was “soluble”.
In the case of “SLLASTRHIARGDTGNVSVRIRRVTTTRAGGVSAPPFDTFNLGDHVGDDPAAVAANRARLAAAIGLPGNRVVWMNQVHGDRVELVDQPRNTALDDTDGLVTATPRLALAVVTADCVPVLMADARAGIAAAVHAGRAGAQRGVVVRALEVMLSLGAQVRDISALLGPAVSGRNYEVPAAMADEVEAALPGSRTTTAAGTPGVDLRAGIACQLRDLGVESIDVDPRCTVADPTLFSHRRDAPTGRFASLVWME”, the “soluble on expression in E. coli” value is reported as “not soluble”.
With “MSGFKWSPDQKWISFLAVPTASWSADSNTLCLVRADGSRFEKVDQMLLNAQWFQWAPSKNILAYIEGSGRVALENKHLKVKELPALQQNIFTPKGYVDWDFVWKNDRVIIVSRAKEAGIETPPEKRPLPSLYEVDSTSNAQHQITKKTNKQGDYHPIFMKKSNQLIWIRSDRKKADVWLAHKDRKQEKKWIENIDVPAWYYEKWNWGNVISVKEELEHHHHHH” the “soluble on expression in E. coli” value was “not soluble”.
